{"source": "patent US20070099268A1", "about": "“Chimeric HCN channels” (priority 2005, published 2007)", "molecules": {"B1": {"name": "mE324A: mHCN2 with glutamate at position 324 mutated to alanine (protein, UniProt O88703 1-863, looked up, variant E324A)", "Potassium/sodium …": "MDARGGGGRPGDSPGTTPAPGPPPPPPPPAPPQPQPPPAPPPNPTTPSHPESADEPGPRARLCSRDSACTPGAAKGGANGECGRGEPQCSPEGPARGPKVSFSCRGAASGPSAAEEAGSEEAGPAGEPRGSQASFLQRQFGALLQPGVNKFSLRMFGSQKAVEREQERVKSAGAWIIHPYSDFRFYWDFTMLLFMVGNLIIIPVGITFFKDETTAPWIVFNVVSDTFFLMDLVLNFRTGIVIEDNTEIILDPEKIKKKYLRTWFVVDFVSSIPVDYIFLIVEKGIDSEVYKTARALRIVRFTKILSLLRLLRLSRLIRYIHQWAEIFHMTYDLASAVMRICNLISMMLLLCHWDGCLQFLVPMLQDFPSDCWVSINNMVNHSWSELYSFALFKAMSHMLCIGYGRQAPESMTDIWLTMLSMIVGATCYAMFIGHATALIQSLDSSRRQYQEKYKQVEQYMSFHKLPADFRQKIHDYYEHRYQGKMFDEDSILGELNGPLREEIVNFNCRKLVASMPLFANADPNFVTAMLTKLKFEVFQPGDYIIREGTIGKKMYFIQHGVVSVLTKGNKEMKLSDGSYFGEICLLTRGRRTASVRADTYCRLYSLSVDNFNEVLEEYPMMRRAFETVAIDRLDRIGKKNSILLHKVQHDLSSGVFNNQENAIIQEIVKYDREMVQQAELGQRVGLFPPPPPPQVTSAIATLQQAVAMSFCPQVARPLVGPLALGSPRLVRRAPPGPLPPAASPGPPAASPPAAPSSPRAPRTSPYGVPGSPATRVGPALPARRLSRASRPLSASQPSLPHGVPAPSPAASARPASSSTPRLGPAPTARTAAPSPDRRDSASPGAASGLDPLDSARSRLSSNL"}, "B2": {"name": "HCN1: mouse HCN1 channel isoform (protein)", "chain": "MEGGGKPNSASNSRDDGNSVFPSKAPATGPVAADKRLGTPPGGGAAGKEHGNSVCFKVDGGGGEEPAGSFEDAEGPRRQYGFMQRQFTSMLQPGVNKFSLRMFGSQKAVEKEQERVKTAGFWIIHPYSDFRFYWDLIMLIMMVGNLVIIPVGITFFTEQTTTPWIIFNVASDTVFLLDLIMNFRTGTVNEDSSEIILDPKVIKMNYLKSWFVVDFISSIPVDYIFLIVEKGMDSEVYKTARALRIVRFTKILSLLRLLRLSRLIRYIHQWEEIFHMTYDLASAVVRIFNLIGMMLLLCHWDGCLQFLVPLLQDFPPDCWVSLNEMVNDSWGKQYSYALFKAMSHMLCIGYGAQAPVSMSDLWITMLSMIVGATCYAMFVGHATALIQSLDSSRRQYQEKYKQVEQYMSFHKLPADMRQKIHDYYEHRYQGKIFDEENILSELNDPLREEIVNFNCRKLVATMPLFANADPNFVTAMLSKLRFEVFQPGDYIIREGAVGKKMYFIQHGVAGVITKSSKEMKLTDGSYFGEICLLTKGRRTASVRADTYCRLYSLSVDNFNEVLEEYPMMRRAFETVAIDRLDRIGKKNSILLQKFQKDLNTGVFNNQENEILKQIVKHDREMVQAIPPINYPQMTALNCTSSTTTPTSRMRTQSPPVYTATSLSHSNLHSPSPSTQTPQPSAILSPCSYTTAVCSPPIQSPLATRTFHYASPTASQLSLMQQPQQQLPQSQVQQTQTQTQQQQQQQQQQQQQQQQQQQQQQQQQQQQQQQQQQQQQPQTPGSSTPKNEVHKSTQALHNTNLTKEVRPLSASQPSLPHEVSTLISRPHPTVGESLASIPQPVAAVHSTGLQAGSRSTVPQRVTLFRQMSSGAIPPNRGVPPAPPPPAAVQRESPSVLNTDPDAEKPRFASNL"}}, "key": {"AdHCN2 infected culture": {"system": "AdHCN2 infected culture", "test": "Modulation of spontaneous rate by drugs in an AdHCN2 infected culture", "type": "cell-based, rat", "conditions": "superfusion with drug; control record of same culture 48, 54 and 96 beats/min respectively"}, "Xenopus oocytes": {"system": "Xenopus oocytes", "test": "Two-microelectrode voltage clamp of mHCN2 and mE324A expressed in Xenopus oocytes", "type": "cell-based, Xenopus laevis", "method": "Oocytes were prepared from mature female Xenopus laevis in accordance with an approved protocol as previously described (Yu et al., 2004).\nFor expression of HCN in Xenopus oocytes, oocytes were injected with 5 ng of cRNA made from mouse wild-type mHCN2 and mutant mHCN2 (E324A) plasmids. Injected oocytes were incubated at 18° C. for 24-48 h prior to electrophysiological analysis.\nFor measurements in Xenopus oocytes, oocytes were voltage-clamped using a two-microelectrode voltage clamp technique. The extracellular recording solution (OR2) contained (in mM): NaCl, 80; KCl, 2; MgCl2, 1; and Na-HEPES, 5 (pH 7.6). For the recording of steady state activation of expressed Wt mHCN2, currents were elicited by 2-s long hyperpolarizing pulses between −30 mV and −160 mV with 10 mV increments, followed by a 1-s depolarizing pulse to +15 mV. The holding potential was −30 mV. As to the mHCN2 (E324A), currents were elicited by 3-s-long hyperpolarizing pulses between +20 mV and −130 mV with 10 mV increments, followed by a 1 second depolarizing pulse to +50 mV. The holding potential was +20 mV. To construct the current/voltage relationship for wildtype (Wt) mHCN2, the cell was held at […], the current was elicited by a 2-s hyperpolarizing voltage step to −140 mV to saturate activation, and followed by 2-s depolarizing voltage steps between […] and +50 mV in 10 mV increments. For mHCN2 (E324A), the cell was held at +20 mV, current was elicited by a 1.5-s hyperpolarizing voltage step to −110 mV to saturate activation, and then followed by 1.5-s depolarizing voltage steps between −80 mV and +50 mV in 10 mV increments for the recording of tail currents. To record the current amplitudes for Wt mHCN2, the current was evoked by applying a 3-s hyperpolarizing voltage pulse to −120 mV from a holding potential of −30 mV. For mHCN2 (E324A), the current was evoked by applying a 3-s hyperpolarizing voltage pulse to −120 mV from a holding potential of +20 mV."}, "[1]": {"system": "cell-free patches from Xenopus oocytes", "conditions": "binding of cAMP to the CNBD; cited from earlier work"}}, "note": "Entries after “also recorded” stand apart in the source; their conditions may differ.", "data": [{"molecule": "C[N+](C)(C)CCOC(N)=O", "note": "[carbachol]", "values": [{"measurement": "spontaneous rate during drug exposure", "setting": "AdHCN2 infected culture", "result": 45, "unit": "beats/min"}]}, {"molecule": "CCN(c1ccccc1)c1cc(=NC)n(C)c(C)n1.Cl", "note": "[ZD-7288]", "values": [{"measurement": "spontaneous rate during drug exposure", "setting": "AdHCN2 infected culture", "result": 78, "unit": "beats/min"}]}, {"molecule": "B1", "values": [{"measurement": "activation threshold", "setting": "Xenopus oocytes", "result": "around −30 mV"}, {"measurement": "slope (s) with cAMP", "setting": "Xenopus oocytes; 8-Br-cAMP 1 mM", "result": 19.7, "unit": "mV"}, {"measurement": "Vh with cAMP", "setting": "Xenopus oocytes; 8-Br-cAMP 1 mM extracellular", "result": "−48.9", "unit": "mV"}, {"measurement": "effect of Cs+ on inward current", "setting": "Xenopus oocytes; Cs+ 5 mM", "result": "blocked; also recorded: large inhibition"}, {"measurement": "slope (s), control", "setting": "Xenopus oocytes; control", "result": 15.2, "unit": "mV"}, {"measurement": "reversal potential of IHCN2", "setting": "Xenopus oocytes; fully activated current/voltage relation", "result": "~−40", "unit": "mV"}, {"measurement": "half maximal activation (Vh), control", "setting": "Xenopus oocytes; oocytes, control", "result": "−57.3", "unit": "mV"}, {"measurement": "induced current", "setting": "Xenopus oocytes; single voltage pulse to −120 mV", "result": "579.8±18.2", "unit": "nA"}]}, {"molecule": "B2", "values": [{"measurement": "shift of activation curve to more positive potentials by cAMP", "setting": "[1]", "result": 4, "unit": "mV"}]}]}
